Source: patent US20050089538A1 (IMMUNOMEDICS, published 2005)

T1: carcinoembryonic antigen (human, UniProt P06731 35-685, limits assumed)
T1 construct: CEA sample fixed to a solid support, directly or through a capture antibody such as MN-15; also called CEA
T1 sequence (looked up): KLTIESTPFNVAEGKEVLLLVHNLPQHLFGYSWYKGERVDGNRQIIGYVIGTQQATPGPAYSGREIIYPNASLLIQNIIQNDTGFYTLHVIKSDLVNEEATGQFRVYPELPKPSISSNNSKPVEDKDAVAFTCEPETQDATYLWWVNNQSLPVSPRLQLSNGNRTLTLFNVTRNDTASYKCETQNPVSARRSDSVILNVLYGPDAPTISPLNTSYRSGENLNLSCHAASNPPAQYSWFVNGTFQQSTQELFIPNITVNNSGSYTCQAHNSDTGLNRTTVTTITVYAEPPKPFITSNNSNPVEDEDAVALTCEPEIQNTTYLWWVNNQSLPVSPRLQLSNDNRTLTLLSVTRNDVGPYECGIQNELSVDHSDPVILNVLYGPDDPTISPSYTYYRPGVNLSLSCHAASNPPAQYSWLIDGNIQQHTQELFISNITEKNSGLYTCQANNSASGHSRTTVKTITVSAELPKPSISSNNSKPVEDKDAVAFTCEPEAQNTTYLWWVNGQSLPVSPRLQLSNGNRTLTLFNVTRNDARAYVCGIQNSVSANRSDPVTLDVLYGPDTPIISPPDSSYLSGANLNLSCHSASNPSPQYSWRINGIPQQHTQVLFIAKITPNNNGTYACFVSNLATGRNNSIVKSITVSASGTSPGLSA


Columns and labels:
[1] = target: T1, carcinoembryonic antigen; test: MN-14 blocking assay on CEA, competitor HRP-labeled MN-14 (FIG. 9)
Procedure: (§1) The humanized KLHuVH varients, such as antibody KLHuVHAIGA/HuVK, were purified and tested in a blocking assay carried out as follows. Antibodies were added at the indicated concentrations together with HRP-labeled MN-14 to a final volume of 0.1 ml. Following 30 mins. of incubation at 37₁C, and washing to remove unbound antibodies, the relative affinities of the antibodies were determined from the remaining bound peroxidase activity. A shown by the assay data of FIG. 9, the activity of the “reshaped” (i.e., CDR-engrafted on FR) humanized antibody was similar to that of chimeric and murine positive controls.

[2] = target: T1, carcinoembryonic antigen; test: MN-14 blocking assay on CEA, unlabelled murine MN-14 against HRP-labeled MN-14 (FIG. 9)
Procedure: as §1

Row | binding result [1] | binding result [2] | Binder
1 | binds |  | chimeric MN-14 antibody (MN-14 mouse VH and VK joined to human IgG1 and human kappa constant regions) (antibody, V domains shown, Human IgG1 constant region (Takahashi et al.) and human kappa constant region (Hieter et al.); The variable regions were re-amplified with primers VH1BACK/VH1FOR and VK8BACK/VK3FOR, so their terminal residues may be dictated by the primers; also called chimeric control; chimeric antibody) VH: EVKLLESGGGLVQSGGSLKLSCAASGFDFTTYWMSWVRQAPGKGLEWIGEIHPDSSTINYAPSLKDKFIVSRDNAKNTLYLQMSKVRSEDTALYYCASLYFGFPWFAYWGQGTPVTVSA VL: EIQLTQSHKMMSTSVGDRVSITCKASQDVGTSVAWYQQRPGQSPKLLIYWTSTRHTGVPDRFTGSVSGTDFTLTITNVQSEDLADYFCQQYSLYRSFGGGTKLEIK
2 |  | binds | murine anti-CEA IgG1 monoclonal antibody MN-14 (antibody, V domains shown, Murine kappa IgG1; also called mMN-14; murine control) VH: EVKLLESGGGLVQSGGSLKLSCAASGFDFTTYWMSWVRQAPGKGLEWIGEIHPDSSTINYAPSLKDKFIVSRDNAKNTLYLQMSKVRSEDTALYYCASLYFGFPWFAYWGQGTPVTVSA VL: EIQLTQSHKMMSTSVGDRVSITCKASQDVGTSVAWYQQRPGQSPKLLIYWTSTRHTGVPDRFTGSVSGTDFTLTITNVQSEDLADYFCQQYSLYRSFGGGTKLEIK
